# Test results taken from article doi:10.1101/2022.11.04.515028.
# Target: GST-ELOB/ELOC complex (UniProt Q15370)
# Test: fluorescence polarisation
Kd [nM],Ki [nM],Substance
0.45,,EPOPwt-FAM (peptide)
,2.35,EPOPwt (peptide)
